From US10849992B1, “Methods of screening for sortilin binding antagonists” (ALECTOR LLC, priority 2015, dated 2020) come the findings set out here.

In experiment [1] the target is T1, human sortilin expressed on cells (human, UniProt Q99523 78-831).
T1 construct: Transiently transfected HEK293T cells; The same id is used for endogenous sortilin on U-251 cells; also called Sortilin1; full-length Sortilin
T1 sequence: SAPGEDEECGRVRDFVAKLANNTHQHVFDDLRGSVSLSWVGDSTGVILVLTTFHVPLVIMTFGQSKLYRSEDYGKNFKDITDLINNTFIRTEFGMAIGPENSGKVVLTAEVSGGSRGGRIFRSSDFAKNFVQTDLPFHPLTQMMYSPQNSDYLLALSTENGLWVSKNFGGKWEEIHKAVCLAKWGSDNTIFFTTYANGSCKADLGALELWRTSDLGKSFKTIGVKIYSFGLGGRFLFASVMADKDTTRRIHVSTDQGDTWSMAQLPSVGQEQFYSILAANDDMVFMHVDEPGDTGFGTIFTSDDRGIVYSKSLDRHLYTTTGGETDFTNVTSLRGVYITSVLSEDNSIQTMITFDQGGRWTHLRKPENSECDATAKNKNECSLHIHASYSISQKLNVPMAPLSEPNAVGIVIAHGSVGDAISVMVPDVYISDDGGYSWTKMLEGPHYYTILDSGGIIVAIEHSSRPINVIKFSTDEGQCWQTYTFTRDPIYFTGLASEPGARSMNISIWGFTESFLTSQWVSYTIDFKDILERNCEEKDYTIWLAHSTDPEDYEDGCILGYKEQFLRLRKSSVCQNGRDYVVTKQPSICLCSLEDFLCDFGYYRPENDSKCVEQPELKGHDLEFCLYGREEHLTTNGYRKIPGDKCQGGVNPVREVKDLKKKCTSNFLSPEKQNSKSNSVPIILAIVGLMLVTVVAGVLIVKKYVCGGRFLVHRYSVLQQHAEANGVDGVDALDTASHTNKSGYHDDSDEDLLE
Description: FACS, blocking of PGRN-DyLight650 binding and endocytosis on sortilin-expressing cells.

Experiment [2] has as its target T2, sortilin protein with a C-terminal 6×His-tag (Homo sapiens (Human), UniProt Q99523 78-755, directly conjugated with d2 in assay format #3 (site not stated); unlabeled and detected with d2-labeled 1C12 in assay format #10).
T2 construct: Soluble sortilin of the HTRF assays; also called sortilin-d2; Tb-conjugated sortilin protein
T2 sequence: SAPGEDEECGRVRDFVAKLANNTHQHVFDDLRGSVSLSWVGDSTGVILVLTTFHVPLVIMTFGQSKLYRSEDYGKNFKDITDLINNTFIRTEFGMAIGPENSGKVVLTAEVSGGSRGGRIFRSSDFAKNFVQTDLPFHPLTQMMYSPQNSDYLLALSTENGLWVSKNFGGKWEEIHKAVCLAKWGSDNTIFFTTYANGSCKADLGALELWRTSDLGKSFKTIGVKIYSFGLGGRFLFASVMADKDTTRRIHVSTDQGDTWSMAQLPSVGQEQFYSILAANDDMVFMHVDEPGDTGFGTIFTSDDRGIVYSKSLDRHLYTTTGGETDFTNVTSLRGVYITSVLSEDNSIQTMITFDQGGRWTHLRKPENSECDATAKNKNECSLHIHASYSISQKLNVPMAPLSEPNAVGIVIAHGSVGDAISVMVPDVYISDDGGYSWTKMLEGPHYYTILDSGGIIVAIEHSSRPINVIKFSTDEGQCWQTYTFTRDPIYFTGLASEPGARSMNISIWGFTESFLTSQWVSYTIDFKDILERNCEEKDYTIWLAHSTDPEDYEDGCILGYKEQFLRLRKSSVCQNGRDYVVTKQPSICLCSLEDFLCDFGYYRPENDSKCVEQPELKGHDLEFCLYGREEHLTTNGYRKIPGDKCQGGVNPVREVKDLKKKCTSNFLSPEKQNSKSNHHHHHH
Put plainly: HTRF, assay format #10: sortilin at 9 nM, anti-sortilin 1C12 at 20 ng/well, SA-Tb at 0.33 nM; assay format #10: sortilin detected with anti-sortilin 1C12 antibody, SA-Tb. From the text: (§1) Assay #3 uses directly d2 conjugated sortilin and SA-Tb to detect the peptide. […] Assay #10 uses anti-sortilin 1C12 antibody to detect sortilin and SA-Tb to detect the peptide.
For orientation: TR-FRET usually uses a lanthanide donor and a delayed reading to cut background.

Experiment [3] deals with T2, sortilin protein with a C-terminal …. Put plainly: row HotKdNM of the drawn table: Kd of the labelled (biotinylated) peptide for sortilin, held constant in the Ki fit of assay format 10; same value in all three columns.
Experiment [4] has the same target. Put plainly: HTRF, assay format #3: sortilin-d2 at 9 nM, SA-Tb at 0.33 nM; assay format #3: directly d2 conjugated sortilin, SA-Tb.
Source text: as §1

In experiment [5] the target is T1, human sortilin expressed on cells. Put plainly: flow cytometry on transiently transfected HEK293T cells, on ice, Streptavidin-APC, median fluorescence intensity. How it is done: (§2) Cells were then washed and incubated with Streptavidin-APC and analyzed using Fluorescence Activated Cell Sorting (FACS). […] Cells were transiently transfected with human Sortilin or lacZ (control) and GFP using Fugene and harvested after 24 h. GFP was either expressed by a second vector (Topo3.3, Invitrogen) or located on the same vector, separated by an IRES sequence (pCMV6-AC-IRES-GFP, Origene). Full-length Sortilin was used either untagged (Topo3.3) or with a C-terminal myc tag (pCMV6-AC-IRES-GFP). […] After washing cells 3 times in HBSS+1% BSA, cells were incubated in Streptavidin-APC (BD Biosciences, 1:20) on ice for 30 min. Then cells were washed again, resuspended in HBSS+1% BSA and analyzed on a FACSCanto™ flow cytometer (BD Biosciences, Mississauga, ON).
On the technique in general: Flow cytometry measures light scatter and fluorescence of single cells or particles in a stream.

A further experiment addresses T3, Sortilin (Homo sapiens, UniProt Q99523).
T3 sequence (Q99523 78-831): T1 sequence
Description: Cell-based FACS assay: biotinylated PGRN binding to HEK293T cells expressing Sortilin. Set-up: Full-length Sortilin was used either untagged (Topo3.3) or with a C-terminal myc tag (pCMV6-AC-IRES-GFP); myc (only in the pCMV6-AC-IRES-GFP construct); expressed in transfected cells; host or cells: HEK293T. The note with it: on ice 2 h, Streptavidin-APC. How it is done:
HEK293T cells were transiently transfected with constructs for expressing Sortilin or LacZ (control) and incubated with biotinylated PGRN protein on ice for 2 h. Both human and mouse PGRN proteins were tested. Cells were then washed and incubated with Streptavidin-APC and analyzed using Fluorescence Activated Cell Sorting (FACS). For blocking assay, sortilin pro-domain peptide was used. Recombinant human PGRN (Adipogen) was biotinylated using a kit (EZ-link-Micro-NHS-PEG4 biotinylation kit, Thermo Scientific Pierce, #21955). Cells were transiently transfected with human Sortilin or lacZ (control) and GFP using Fugene and harvested after 24 h. GFP was either expressed by a second vector (Topo3.3, Invitrogen) or located on the same vector, separated by an IRES sequence (pCMV6-AC-IRES-GFP, Origene). Full-length Sortilin was used either untagged (Topo3.3) or with a C-terminal myc tag (pCMV6-AC-IRES-GFP). Human Progranulin was added in HBSS+1% BSA or PBS+1% BSA with or without Sortilin pro-peptide as a blocker, and incubated on ice for 2 h. […] Then cells were washed again, resuspended in HBSS+1% BSA and analyzed on a FACSCanto™ flow cytometer (BD Biosciences, Mississauga, ON). PGRN binding was measured as the median fluorescence intensity of APC on the GFP positive population.

Experiment [6] addresses T1, human sortilin expressed on cells. Description: FACS, blocking of biotinylated PGRN binding to sortilin-expressing HEK293T cells. How it is done:
as §2

No end group written: not given here. *: point of attachment. Biotin = O=C1N[C@H]2[C@H](CS[C@H]2CCCCC(=O)*)N1

B1: non-biotinylated PGRN peptide (peptide)
peptide: TKCLRREAPRWDAPLRDPALRQLL
notes: also called unlabeled PGRN peptide; C-terminal peptide of PGRN
Usually IC50 stands for the concentration that inhibits the measured activity by half. Higher therefore signals weaker potency in that assay. Take B1: the IC50 in experiment [1] worked out at 35 nM. This counts as double-digit nanomolar.

B2: biotinylated PGRN peptide (peptide)
peptide: Biotin-TKCLRREAPRWDAPLRDPALRQLL
notes: Detected through streptavidin-Tb in formats #3, #6 and #10; also called 24 amino acid-sized C-terminal peptide of PGRN; biotinylated peptide
The term Kd denotes the constant that tells how readily two partners part at equilibrium. The low end stands for tighter binding, the high end for weaker binding. Consider B2, for which the Kd in experiment [2] came out at 1.6 nM; in experiment [3], 1.4 nM; in experiment [4], 2 nM.

B3: biotinylated mouse PGRN (ligand, UniProt P28798 18-589, looked up)
chain: TQCPDGQFCPVACCLDQGGANYSCCNPLLDTWPRITSHHLDGSCQTHGHCPAGYSCLLTVSGTSSCCPFSKGVSCGDGYHCCPQGFHCSADGKSCFQMSDNPLGAVQCPGSQFECPDSATCCIMVDGSWGCCPMPQASCCEDRVHCCPHGASCDLVHTRCVSPTGTHTLLKKFPAQKTNRAVSLPFSVVCPDAKTQCPDDSTCCELPTGKYGCCPMPNAICCSDHLHCCPQDTVCDLIQSKCLSKNYTTDLLTKLPGYPVKEVKCDMEVSCPEGYTCCRLNTGAWGCCPFAKAVCCEDHIHCCPAGFQCHTEKGTCEMGILQVPWMKKVIAPLRLPDPQILKSDTPCDDFTRCPTNNTCCKLNSGDWGCCPIPEAVCCSDNQHCCPQGFTCLAQGYCQKGDTMVAGLEKIPARQTTPLQIGDIGCDQHTSCPVGQTCCPSLKGSWACCQLPHAVCCEDRQHCCPAGYTCNVKARTCEKDVDFIQPPVLLTLGPKVGNVECGEGHFCHDNQTCCKDSAGVWACCPYLKGVCCRDGRHCCPGGFHCSARGTKCLRKKIPRWDMFLRDPVPRPLL
modifications: biotinylated (sites not given)
As for B3, the binding result in experiment [5] was “binds”.

B4: mouse PGRN: mouse PGRN protein, biotinylated, tested in the FACS binding assay (protein)
chain: B3 chain
As for B4, in the experiment with Sortilin, the “binding of PGRN to sortilin-expressing, but not control (LacZ), HEK293T cells” value is “strong and specific binding”.

B5: sortilin pro-domain peptide (peptide, UniProt Q99523 34-77, looked up)
peptide: QDRLDAPPPPAAPLPRWSGPIGVSWGLRAAAAGGAFPRGGRWRR
notes: domain: pro-domain; also called Sortilin1 pro-domain peptide; sortilin pro-peptide
Turning to B5, the IC50 in experiment [1] was 450 nM; in experiment [6] it was ~5.9 µM.
